# T1: collagen type III (Homo sapiens, UniProt P02461)
# T1 sequence (P02461 154-1221 limits assumed): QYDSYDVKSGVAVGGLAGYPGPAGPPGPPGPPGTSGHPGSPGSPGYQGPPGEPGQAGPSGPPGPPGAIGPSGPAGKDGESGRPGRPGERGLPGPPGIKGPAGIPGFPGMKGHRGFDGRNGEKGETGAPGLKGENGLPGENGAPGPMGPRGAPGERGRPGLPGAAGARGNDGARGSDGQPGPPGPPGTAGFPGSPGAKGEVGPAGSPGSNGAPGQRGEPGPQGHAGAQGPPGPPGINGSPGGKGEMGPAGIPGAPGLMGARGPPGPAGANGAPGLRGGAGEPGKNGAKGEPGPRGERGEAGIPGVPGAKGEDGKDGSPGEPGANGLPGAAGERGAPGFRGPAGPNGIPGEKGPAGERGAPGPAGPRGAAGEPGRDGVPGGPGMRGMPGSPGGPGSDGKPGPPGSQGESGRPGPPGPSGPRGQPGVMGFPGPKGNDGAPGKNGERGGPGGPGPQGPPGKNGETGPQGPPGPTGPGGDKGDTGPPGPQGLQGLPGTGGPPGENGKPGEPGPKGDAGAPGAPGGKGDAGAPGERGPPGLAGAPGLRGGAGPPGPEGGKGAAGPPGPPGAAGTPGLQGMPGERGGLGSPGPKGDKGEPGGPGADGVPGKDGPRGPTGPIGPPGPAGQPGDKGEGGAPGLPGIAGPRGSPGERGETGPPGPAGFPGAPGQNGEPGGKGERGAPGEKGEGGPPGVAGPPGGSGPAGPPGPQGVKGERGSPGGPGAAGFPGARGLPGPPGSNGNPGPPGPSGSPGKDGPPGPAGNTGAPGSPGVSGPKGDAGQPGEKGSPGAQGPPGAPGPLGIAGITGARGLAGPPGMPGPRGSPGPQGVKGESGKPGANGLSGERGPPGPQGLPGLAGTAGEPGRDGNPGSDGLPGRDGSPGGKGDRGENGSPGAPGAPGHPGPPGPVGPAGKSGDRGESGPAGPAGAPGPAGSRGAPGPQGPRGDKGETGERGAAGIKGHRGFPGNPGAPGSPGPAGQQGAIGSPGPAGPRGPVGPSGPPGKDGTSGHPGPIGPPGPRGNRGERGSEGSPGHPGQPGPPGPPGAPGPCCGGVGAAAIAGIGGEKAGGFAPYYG
# B1: CBD-SA: recombinant mouse serum albumin with VWF A3 collagen binding domain on the N-terminus via (GGGS)2 linker (SEQ ID NO:3) (protein)
# chain: CSQPLDVILLLDGSSSFPASYFDEMKSFAKAFISKANIGPRLTQVSVLQYGSITTIDVPWNVVPEKAHLLSLVDVMQREGGPSQIGDALGFAVRYLTSEMHGARPGASKAVVILVTDVSVDSVDAAADAARSNRVTVFPIGIGDRYDAAQLRILAGPAGDSNVVKLQRIEDLPTMVTLGNSFLHKLCSGFVRIGGGSGGGSEAHKSEIAHRYNDLGEQHFKGLVLIAFSQYLQKCSYDEHAKLVQEVTDFAKTCVADESAANCDKSLHTLFGDKLCAIPNLRENYGELADCCTKQEPERNECFLQHKDDNPSLPPFERPEAEAMCTSFKENPTTFMGHYLHEVARRHPYFYAPELLYYAEQYNEILTQCCAEADKESCLTPKLDGVKEKALVSSVRQRMKCSSMQKFGERAFKAWAVARLSQTFPNADFAEITKLATDLTKVNKECCHGDLLECADDRAELAKYMCENQATISSKLQTCCDKPLLKKAHCLSEVEHDTMPADLPAIAADFVEDQEVCKNYAEAKDVFLGTFLYEYSRRHPDYSVSLLLRLAKKYEATLEKCCAEANPPACYGTVLAEFQPLVEEPKNLVKTNCDLYEKLGEYGFQNAILVRYTQKAPQVSTPTLVEAARNLGRVGTKCCTLPEDQRLPCVEDYLSAILNRVCLLHEKTPVSEHVTKCCSGSLVERRPCFSALTVDETYVPKEFKAETFTFHSDICTLPEKEKQIKKQTALAELVKHKPKATAEQLKTVMDDFAQFLDTCCKAADKDTCFSTEGPNLVTRCKDALAHHHHHH
# What was measured:
# collagen type I = collagen type I (Homo sapiens, UniProt P02452+P08123); assay: Binding affinity of CBD-SA to collagen by ELISA
# Sequence of collagen type I (P02452 162-1218 limits assumed): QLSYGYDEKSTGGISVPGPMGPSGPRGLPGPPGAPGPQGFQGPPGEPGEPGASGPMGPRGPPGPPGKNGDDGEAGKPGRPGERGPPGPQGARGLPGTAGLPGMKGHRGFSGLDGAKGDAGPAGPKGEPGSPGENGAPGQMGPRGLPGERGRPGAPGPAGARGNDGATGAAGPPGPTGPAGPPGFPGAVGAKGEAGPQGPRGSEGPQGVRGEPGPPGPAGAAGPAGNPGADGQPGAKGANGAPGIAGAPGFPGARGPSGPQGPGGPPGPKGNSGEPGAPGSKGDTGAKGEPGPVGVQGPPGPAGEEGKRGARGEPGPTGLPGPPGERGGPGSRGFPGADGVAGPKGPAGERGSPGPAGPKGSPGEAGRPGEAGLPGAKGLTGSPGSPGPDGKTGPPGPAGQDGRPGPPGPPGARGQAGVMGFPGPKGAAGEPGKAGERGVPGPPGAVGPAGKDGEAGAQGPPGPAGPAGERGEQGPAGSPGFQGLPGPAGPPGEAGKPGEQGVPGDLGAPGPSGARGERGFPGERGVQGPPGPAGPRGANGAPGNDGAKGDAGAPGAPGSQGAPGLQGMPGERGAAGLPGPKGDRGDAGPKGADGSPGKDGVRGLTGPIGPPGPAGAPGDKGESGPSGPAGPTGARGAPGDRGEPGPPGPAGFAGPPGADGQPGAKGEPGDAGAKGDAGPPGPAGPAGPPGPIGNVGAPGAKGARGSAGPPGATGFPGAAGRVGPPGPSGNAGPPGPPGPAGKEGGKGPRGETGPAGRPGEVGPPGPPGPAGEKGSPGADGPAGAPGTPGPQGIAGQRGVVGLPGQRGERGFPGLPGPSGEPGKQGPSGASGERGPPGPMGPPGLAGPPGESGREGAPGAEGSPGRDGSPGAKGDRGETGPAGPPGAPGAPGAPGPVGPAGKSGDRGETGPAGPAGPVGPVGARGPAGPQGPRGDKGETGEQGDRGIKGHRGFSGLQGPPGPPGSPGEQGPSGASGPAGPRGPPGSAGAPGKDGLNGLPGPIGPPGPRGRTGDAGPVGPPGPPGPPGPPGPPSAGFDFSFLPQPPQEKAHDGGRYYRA
# Sequence of collagen type I (P08123 80-1119 limits assumed): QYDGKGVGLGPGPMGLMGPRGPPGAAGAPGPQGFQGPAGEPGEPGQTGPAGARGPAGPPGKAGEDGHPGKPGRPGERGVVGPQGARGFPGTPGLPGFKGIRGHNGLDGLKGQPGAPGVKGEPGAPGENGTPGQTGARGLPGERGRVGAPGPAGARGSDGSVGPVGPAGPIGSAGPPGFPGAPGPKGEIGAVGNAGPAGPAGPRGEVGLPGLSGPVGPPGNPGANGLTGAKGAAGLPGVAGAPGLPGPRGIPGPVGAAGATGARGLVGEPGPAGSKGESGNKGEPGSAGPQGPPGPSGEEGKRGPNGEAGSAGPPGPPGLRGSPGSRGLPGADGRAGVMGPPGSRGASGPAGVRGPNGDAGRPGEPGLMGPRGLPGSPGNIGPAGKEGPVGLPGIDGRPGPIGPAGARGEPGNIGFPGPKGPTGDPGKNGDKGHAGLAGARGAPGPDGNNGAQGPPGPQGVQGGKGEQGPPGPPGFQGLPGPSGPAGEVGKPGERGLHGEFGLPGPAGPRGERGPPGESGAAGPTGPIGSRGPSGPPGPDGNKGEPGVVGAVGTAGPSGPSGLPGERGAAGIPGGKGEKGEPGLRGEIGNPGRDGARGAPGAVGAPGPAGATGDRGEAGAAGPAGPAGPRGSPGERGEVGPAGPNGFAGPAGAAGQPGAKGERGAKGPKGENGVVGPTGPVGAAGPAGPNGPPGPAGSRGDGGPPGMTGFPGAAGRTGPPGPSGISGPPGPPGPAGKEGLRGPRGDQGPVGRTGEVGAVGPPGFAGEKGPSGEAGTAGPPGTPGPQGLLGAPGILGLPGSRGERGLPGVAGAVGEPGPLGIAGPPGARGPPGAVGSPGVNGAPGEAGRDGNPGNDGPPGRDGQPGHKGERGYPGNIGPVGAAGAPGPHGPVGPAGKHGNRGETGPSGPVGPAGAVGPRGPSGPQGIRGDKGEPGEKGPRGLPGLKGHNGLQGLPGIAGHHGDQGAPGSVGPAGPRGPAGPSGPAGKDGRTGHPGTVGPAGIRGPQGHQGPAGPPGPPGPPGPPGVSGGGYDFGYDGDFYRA
# Procedure: (§1) The binding affinity of CBD-SA to collagens were tested as described previously (9). 96 well ELISA plates (Greiner Bio-One) were coated with collagen I or collagen III (10 μg/mL each in PBS) for overnight at 37° C., followed by blocking with 2% BSA in PBS with 0.05% Tween 20 (PBS-T) for 1 h at room temperature. Then, wells were washed with PBS-T and further incubated with CBD-SA at increasing concentrations for 2 h at room temperature. After three washes with PBS-T, wells were incubated for 1 h at room temperature with biotin- conjugated Abs against mouse SA. After washes, bound CBD-SA were detected with tetramethylbenzidine substrate by measurement of the absorbance at 450 nm with subtraction of the absorbance at 570 nm. The apparent Kd values were obtained by nonlinear regression analysis in Prism software (version 7, GraphPad) assuming one-site-specific binding.
# collagen type III = biological target: T1, collagen type III; assay: Binding affinity of CBD-SA to collagen by ELISA
# Procedure: as §1
# MMTV-PyMT tumor = assay: Histological analysis of injected CBD-SA within tumor; format: in vivo, mouse; details: 1 h after i.v. injection, CD31 staining
# Procedure: Mouse SA (Sigma-Aldrich) and CBD-SA were conjugated with NHS-DyLight 488 according to manufacturer's instructions. Unreacted dye was removed by Zeba spin desalting column, then fluorescent protein solution was stored at 4° C. until use. 100 μg of fluorescent labeled SA or CBD-SA labeled with equimolar of dye was intravenously injected to MMTV-PyMT tumor-bearing mice. 1 h after injection, tumors were harvested and frozen in dry ice with OCT compound. 10 μm of tissue slices were obtained by cryo-sectioning. The tissues were fixed with 2% paraformaldehyde in PBS for 15 min at room temperature. After wash with PBS-T, the tissues were blocked with 2% BSA in PBS-T for 1 h at room temperature. The tissues were stained with biotin labeled anti-mouse CD31 antibody (1:100, Biolegend) and Alexa Fluor 647 streptavidin (1:1000, Biolegend). The tissues were washed three times, then covered with ProLong gold antifade mountant with DAPI (Thermo fisher scientific). IX83 microscope (Olympus) was used for imaging with ×60 magnification. Images were processed using ImageJ software (NIH).
molecule,measurement,setting,value
B1,dissociation constant (Kd) to collagen type I,collagen type I,nM range
same,dissociation constant (Kd) to collagen type III,collagen type III,nM range
same,localization of fluorescently-labeled protein within tumor tissue,MMTV-PyMT tumor,co-localized with CD31 staining within tumor tissue
